Common to all, as to assay: cell-based or functional assay
In assay [1] the target is SARS-CoV-2 D614G spike protein (SARS-CoV-2) (UniProt P0DTC2).
Assay [2] has the same target. The source holds these as a separate data set.
Assay [3] shares this target. This is another data set of the same source.
The target in assay [4] is SARS-CoV-2 BA.5.8 + P1162L spike protein (SARS-CoV-2).
Assay [5] deals with SARS-CoV-2 D614G spike protein (SARS-CoV-2) (UniProt P0DTC2). This is another data set of the same source.
The target in assay [6] is SARS-CoV-2 BA.1.1 + P1162S spike protein (SARS-CoV-2).
Assay [7] has as its target SARS-CoV-2 D614G spike protein (SARS-CoV-2) (UniProt P0DTC2). This is another data set of the same source.
Assay [8] has as its target SARS-CoV-2 BA.4/5+K444T Spike on pseudovirus (SARS-CoV-2) (UniProt P0DTC2).

Read-outs that look alike come from different tables or passages of the source.

Results on five substances are retold here after patent US20240360203A1.

With Bebtelovimab (antibody), the pseudovirus neutralization EC50, Vero E6 (bebtelovimab + isotype) in assay [1] is 0.29 ng/mL. Besides, the pseudovirus neutralization EC90, Vero E6 (bebtelovimab + isotype) in assay [2] came out at 11 ng/mL. In addition, the pseudovirus neutralization Emax, Vero E6 (bebtelovimab + isotype) (% neutralization) in assay [3] was determined as 99.7. Also, in assay [4], the pseudovirus neutralization EC50 came to 0.13 ng/mL, the pseudovirus neutralization EC80 stood at 1.1 ng/mL, the pseudovirus neutralization EC90 turned out to be 3.7 ng/mL and the pseudovirus neutralization Emax (% neutralization) amounted to 99.9. In assay [5], the pseudovirus neutralization EC50 stood at 0.57 ng/mL; the pseudovirus neutralization EC50, TMPRSS2-Vero E6 (bebtelovimab + isotype) was 1.7 ng/mL; the pseudovirus neutralization EC50, Vero E6 (bebtelovimab + isotype) was determined as 0.64 ng/mL; the pseudovirus neutralization EC80 was found to be 4.9 ng/mL. Further, in assay [5], the pseudovirus neutralization EC80, TMPRSS2-Vero E6 (bebtelovimab + isotype) amounted to 11 ng/mL; the pseudovirus neutralization EC80, Vero E6 (bebtelovimab + isotype) was 2.7 ng/mL; the pseudovirus neutralization EC90 is 18 ng/mL; the pseudovirus neutralization EC90, TMPRSS2-Vero E6 (bebtelovimab + isotype) stood at 32 ng/mL. In assay [5], the pseudovirus neutralization EC90, Vero E6 (bebtelovimab + isotype) worked out at 6.1 ng/mL; the pseudovirus neutralization Emax (% neutralization) came out at 99.9; the pseudovirus neutralization Emax, TMPRSS2-Vero E6 (bebtelovimab + isotype) (% neutralization) is 99.4; the pseudovirus neutralization Emax, Vero E6 (bebtelovimab + isotype) (% neutralization) was found to be 99.4. In assay [6], the pseudovirus neutralization EC50 worked out at 0.12 ng/mL, the pseudovirus neutralization EC80 is 1.4 ng/mL, the pseudovirus neutralization EC90 is 6 ng/mL and the pseudovirus neutralization Emax (% neutralization) was 100. The pseudovirus neutralization EC80, Vero E6 (bebtelovimab + isotype) in assay [7] was determined as 2.9 ng/mL. In assay [8], this substance showed an IC50, pseudovirus neutralization of 1220 ng/mL.

With “Sotrovimab VH/VL (human IgG1 molecule expressing the same variable regions of Sotrovimab) (antibody)”, in assay [8], the IC50, pseudovirus neutralization came out at 304 ng/mL.

Sotrovimab VH/VL-hamIgG2a (antibody) registered a pseudovirus neutralization EC50, Vero E6 in assay [5] of 8.51 ng/mL.

In turn, Sotrovimab VH/VL-huIgG1 (antibody) gave a pseudovirus neutralization EC50, Vero E6 in assay [5] of 27.9 ng/mL.

Regarding Sotrovimab VH/VL-huIgG1-LS (antibody), the pseudovirus neutralization EC50, Vero E6 (sotrovimab VH/VL-huIgG1-LS + isotype) in assay [1] came to 14 ng/mL. Moreover, the pseudovirus neutralization EC90, Vero E6 (sotrovimab VH/VL-huIgG1-LS + isotype) in assay [2] amounted to 170 ng/mL. Further, the pseudovirus neutralization Emax, Vero E6 (sotrovimab VH/VL-huIgG1-LS + isotype) (% neutralization) in assay [3] turned out to be 98.3. In assay [5], this substance showed a pseudovirus neutralization EC50, Vero E6 of 35.2 ng/mL. Further, the pseudovirus neutralization EC80, Vero E6 (sotrovimab VH/VL-huIgG1-LS + isotype) in assay [7] was 69 ng/mL.
